What all share (test): BLI
(BLI is a label-free optical method that tracks binding on a fibre tip over time.)

For one experiment, the target named is T1, EVA1_RHISA (Rhipicephalus sanguineus, UniProt P0C8E7 21-114).
T1 construct: also called Evasin-1
T1 sequence: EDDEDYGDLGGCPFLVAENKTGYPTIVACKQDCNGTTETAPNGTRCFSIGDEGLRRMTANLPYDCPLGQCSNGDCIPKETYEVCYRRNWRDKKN

The next experiment addresses T2, P546_AMBCA (Amblyomma cajennense, UniProt A0A023FBW7 22-118).
T2 sequence: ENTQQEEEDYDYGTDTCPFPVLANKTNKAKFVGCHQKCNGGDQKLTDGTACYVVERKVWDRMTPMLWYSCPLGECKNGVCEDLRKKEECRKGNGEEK

The next experiment addresses T3, P985_AMBPA (Amblyomma parvum, UniProt A0A023FT45 25-132).
T3 sequence: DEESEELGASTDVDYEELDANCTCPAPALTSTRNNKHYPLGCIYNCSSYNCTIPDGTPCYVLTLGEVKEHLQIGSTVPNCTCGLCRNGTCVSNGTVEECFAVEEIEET

The target of the next experiment is T4, P1181_AMBMA (Amblyomma maculatum, UniProt G3MIX6 26-115).
T4 sequence: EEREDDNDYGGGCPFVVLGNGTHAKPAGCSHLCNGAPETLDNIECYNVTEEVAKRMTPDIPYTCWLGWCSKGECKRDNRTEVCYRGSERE

Another experiment addresses T5, P1243_AMBAM (Amblyomma americanum, UniProt A0A0C9S461 26-123).
T5 sequence: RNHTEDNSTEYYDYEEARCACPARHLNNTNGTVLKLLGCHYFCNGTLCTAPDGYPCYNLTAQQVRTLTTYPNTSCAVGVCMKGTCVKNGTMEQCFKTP

The target of a further experiment is T6, P983_AMBCA (Amblyomma cajennense, UniProt A0A023FFB5 22-119).
T6 sequence: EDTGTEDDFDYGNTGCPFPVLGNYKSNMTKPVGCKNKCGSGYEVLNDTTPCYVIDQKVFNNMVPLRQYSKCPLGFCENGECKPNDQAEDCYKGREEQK

Another experiment addresses T7, P1183_AMBTR (Amblyomma triste, UniProt A0A023G9N9 26-115).
T7 sequence: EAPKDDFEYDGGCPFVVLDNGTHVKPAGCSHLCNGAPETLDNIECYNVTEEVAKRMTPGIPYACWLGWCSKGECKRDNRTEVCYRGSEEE

A further experiment addresses T8, P1180_AMBTR (Amblyomma triste, UniProt A0A023G6B6 26-116).
T8 sequence: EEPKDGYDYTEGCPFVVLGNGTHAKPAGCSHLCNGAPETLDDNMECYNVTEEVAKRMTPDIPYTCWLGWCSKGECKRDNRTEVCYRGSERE

In another experiment the target is T9, P974_AMBCA (Amblyomma cajennense, UniProt A0A023FDY8 22-118).
T9 sequence: T2 sequence with E8Q, S69E, E88D

The target in the next experiment is T10, P467_RHIPU (Rhipicephalus pulchellus, UniProt L7M8Z8 22-127).
T10 sequence: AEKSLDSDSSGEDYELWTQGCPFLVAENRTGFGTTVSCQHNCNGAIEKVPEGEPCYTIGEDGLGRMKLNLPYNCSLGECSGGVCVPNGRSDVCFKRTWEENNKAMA

The target in the next experiment is T11, P991_AMBCA (Amblyomma cajennense, UniProt A0A023FFD0 29-136).
T11 sequence: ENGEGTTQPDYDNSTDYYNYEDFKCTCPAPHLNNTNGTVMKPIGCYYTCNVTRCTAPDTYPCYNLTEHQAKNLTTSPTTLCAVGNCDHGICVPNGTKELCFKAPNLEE

The target in another experiment is T12, P1182_AMBMA (Amblyomma maculatum, UniProt G3MJ83 27-115).
T12 sequence: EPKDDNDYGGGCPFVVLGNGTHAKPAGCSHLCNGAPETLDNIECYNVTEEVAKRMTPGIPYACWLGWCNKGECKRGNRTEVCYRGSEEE

Another experiment concerns the target T13, P672_RHIPU (Rhipicephalus pulchellus, UniProt L7MC74 22-125).
T13 sequence: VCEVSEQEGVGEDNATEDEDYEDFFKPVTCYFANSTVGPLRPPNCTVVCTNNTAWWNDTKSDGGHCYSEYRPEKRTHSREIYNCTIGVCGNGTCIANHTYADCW

Substitutions are numbered along the chain they refer to.
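Throughout, for Kd: biolayer interferometry on an Octet system: chemokines at several doses tested against tick chemokine-binding proteins, association, equilibrium and dissociation curves fitted to derive Kd.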

B1: CCL8_HUMAN (ligand, UniProt P80075 24-99, looked up)
chain: QPDSVSIPITCCFNVINRKIPIQRLESYTRITNIQCPKEAVIFKTKRGKEVCADPKERWVRDSMKHLDQIFQNLKP
Broadly, the Kd is the free concentration of one partner at which half of the binding sites on the other are occupied at equilibrium, for simple one-to-one binding. Low values mean higher affinity, high ones lower affinity. Take B1: the binding result in the experiment with EVA1_RHISA is “no binding (tested: 600 nM)”. Besides, the Kd with P546_AMBCA turned out to be 1.3 nM; in the experiment with P985_AMBPA it was 6.5 nM; in the experiment with P1181_AMBMA, 14 nM; with P1243_AMBAM, 21.9 nM; in the experiment with P983_AMBCA, 7 nM; with P1183_AMBTR, 1100 nM. Besides, the Kd in the experiment with P1180_AMBTR is 3.6 nM; in the experiment with P974_AMBCA it was 2.58 nM; in the experiment with P467_RHIPU it was 2.85 nM; with P991_AMBCA it was 8.79 nM; with P1182_AMBMA it was 29 nM; with P672_RHIPU it was 3.7 nM.
